We go through five molecules from US20220064282A1 (ZEDA BIOPHARMACEUTICALS, published 2022).

Positions count from the first letter of the chain named.

Assay [1] has as its target T1, IL-1β-his (human, UniProt P01584 117-269).
T1 construct: also called IL1b-His; IL-1β-WT-His
The assay is described as follows: ELISA on IL-1β-his (Example 11, method of Example 6.1); sample kept at 40 °C for 28 d; Mean, SD 0.023. A general note: An ELISA detects its analyte on a solid surface through an enzyme-linked reagent.

Assay [2] has as its target T1, IL-1β-his. The experiment in a line: ELISA, IL-1β-his coated, antibody titrated (Example 9, method of Example 6.1); Mean, SD 0.000; upper left table.
Assay [3] concerns the target T1, IL-1β-his. The experiment in a line: ELISA, IL-1β-his coated.
For assay [4], the target named is T1, IL-1β-his. The experiment in a line: BLI (Fortebio Octet Qke), antibody immobilised on AR2G sensor, IL1β-his 1.56-100 nM, 1:1 fit. On the technique in general: In BLI a coated tip is dipped into the sample, and binding shifts an interference pattern.
Assay [5] deals with T1, IL-1β-his. The experiment in a line: ELISA, IL-1β-his coated, antibody titrated (Example 9, method of Example 6.1); Mean, SD 0.019; lower left table.
Assay [6] deals with T1, IL-1β-his. The experiment in a line: ELISA, IL-1β-his coated, antibody titrated (Example 9, method of Example 6.1); Mean, SD 0.002; lower right table.
Assay [7] deals with T1, IL-1β-his. The experiment in a line: ELISA on IL-1β-his (Example 11, method of Example 6.1); sample kept at 40 °C for 7 d; Mean, SD 0.001.
Assay [8] deals with T1, IL-1β-his. The experiment in a line: ELISA, IL-1β-his coated, antibody titrated (Example 9, method of Example 6.1); Mean, SD 0.000; upper right table.
Another assay has as its target T2, IL-1β-his-bio (human, UniProt P01584 117-269, biotinylated, sites not stated).
T2 construct: also called biotinylated IL1b-His
The experiment in a line: ELISA, IL-1β-his-bio captured on streptavidin plate.

The target of assay [9] is T3, IL-1β-hFc (human).
T3 construct: also called IL1b-TEV-hIgG1Fc
The assay is described as follows: competition ELISA, IL-1β-hFc coated, competitor IL1RI(1-332)-his at 0.04 µg/ml, anti-His detection.

Assay [10] deals with T3, IL-1β-hFc. The assay is described as follows: competition ELISA: IL-1β-hFc coated, antibody titrated, IL1RI (1-332)-his as the blocked receptor (Example 12, method of Example 6.2).
The target of assay [11] is T3, IL-1β-hFc. The experiment in a line: competition ELISA by the method of Example 6.2, competitor IL1RI.
The target of assay [12] is T3, IL-1β-hFc. The experiment in a line: competition ELISA, IL-1β-hFc coated, competitor IL1RI(1-332)-his, anti-His detection.
Assay [13] concerns the target T4, IL1β (antigen used as analyte in Biacore) (UniProt P01584 117-269, limits assumed).
T4 construct: also called the antigen
The assay is described as follows: SPR (Biacore), antibody captured on Protein A chip, antigen as analyte.

B1: humanized antibody 18H11 H1L1 (antibody, V domains shown)
VH: QVQLVQSGAEVVKPGASVKISCKASGYLFTGYYMHWVKQAPGKGLEWIGFISCYNGDTTYNQKFQGKATFTVDTSTNTAYMEFNSLTSEDTAVYYCSRSDYYGTSDYWGQGTTLTVSS
VL: EIVLTQSPATMSASPGERVTISCRASSSVSYMHWFQQKPGQAPRLWIYTTSTLATGVPARFSGSGSGTDYTLTISRMEPEDAATYYCQQRIIYPPTFGGGTKLEIKR
As for B1, the concentration giving a half-maximal response (EC50) (in general, the concentration needed to bring the measured effect to its halfway point) came to 0.133 nM with IL-1β-his [1]; 0.051 nM with IL-1β-his [2]; 0.046 nM with IL-1β-his [3]; 0.074 nM with IL-1β-his [5]; 0.051 nM in the assay with IL-1β-his [6]; 0.076 nM in the assay with IL-1β-his [7]. The molecule further came in with an EC50 in the assay with IL-1β-his [8] of 0.051 nM. Further, in the assay with IL-1β-his [4], the Kd (as a rule, the free concentration of one partner at which half of the binding sites on the other are occupied at equilibrium, for simple one-to-one binding) was determined as 0.142 nM.

B2: murine antibody KF021ZP4 9D5 (antibody, V domains shown)
VH: DVQLVESGGGLVQPGGSRKLSCAASGFTFSTFGMHWVRQAPEKGLEWVAYISSGSYTTYYADTVRGRFTISRDNPKNTLFLQMTSLRSEDTAMYYCARDDYDVSNYVMDYWGQGTSVTVSS
VL: DIVLTQSPASLAVSLGQRATISCRASESVEYYGTSLMQWYQQKPGQPPKLLIYAASNVESGVPARFTGSGSGTVFSLNIHPVEEDDIAMYFCQQSRKVPSLTFGAGTKLELK
notes: Mouse monoclonal antibody from hybridoma supernatant
As for B2, the EC50 in the assay with IL-1β-his-bio turned out to be 0.036 nM; in the assay with IL-1β-hFc [9] it was 0.37 nM.

B3: murine antibody KF021ZP4 19E4 (antibody, V domains shown)
VH: B2 VH with T58I, N105Y, V107A
VL: B2 VL with T67S, V74D
notes: as for B2
As to B3, the EC50 is 0.726 nM with IL-1β-his-bio and 0.892 nM with IL-1β-hFc [9].

B4: murine antibody KF021ZP4 18H11 (antibody, V domains shown)
VH: EVQLQQSGPELVKTGASVKISCKASGYLFTGYYMHWVKQSHGKSLEWIGFISCYNGDTTYNQKFKDKATFTVDTSSNTAYMQFNSLTSEDSAVYYCSRSDYYGTSDYWGQGTTLTVSS
VL: QIVLTQSPAIMSASPGEKVTITCSASSSVSYMHWFQQKPGTSPKLWIYTTSTLASGVPARFSGSGSGTSYSLTISRMEAEDAATYYCQQRIIYPPTFGGGTKLEIK
notes: as for B2
For the molecule B4, the EC50 in the assay with IL-1β-his-bio was 0.174 nM; with IL-1β-hFc [9], 0.389 nM.

B5: Positive control antibody PcAb (antibody, human IgG1, kappa, V domains shown)
VH: QVQLVESGGGVVQPGRSLRLSCAASGFTFSVYGMNWVRQAPGKGLEWVAIIWYDGDNQYYADSVKGRFTISRDNSKNTLYLQMNGLRAEDTAVYYCARDLRTGPFDYWGQGTLVTVSS
VL: EIVLTQSPDFQSVTPKEKVTITCRASQSIGSSLHWYQQKPDQSPKLLIKYASQSFSGVPSRFSGSGSGTDFTLTINSLEAEDAAAYYCHQSSSLPFTFGPGTKVDIKR
notes: also called KF021ZP4 PcAb; KF021ZP4 PCAb
Take B5: in the assay with IL-1β-hFc [10], the “IC50 (read off the curve)” value was around 3 nM. Further, the EC50 came to 0.169 nM in the assay with IL-1β-his [3], 0.062 nM in the assay with IL-1β-his-bio, 0.516 nM with IL-1β-hFc [12] and 0.229 nM in the assay with IL-1β-hFc [9]. Moreover, the dissociation constant Kd with IL-1β-his [4] stood at 0.179 nM; in assay [13] it was 0.0616 nM. Further, the koff – broadly, a measure of how fast the partners let go of each other – in the assay with IL-1β-his [4] turned out to be 0.000105 s⁻¹; in [13], 0.000104 s⁻¹. For the same molecule, the kon (usually the second-order rate constant of association) is 589000 M⁻¹ s⁻¹ with IL-1β-his [4] and 1.69e+06 M⁻¹ s⁻¹ in assay [13]. Besides, the IC50 (in general, the concentration that gives 50% inhibition) with IL-1β-hFc [11] came to 0.03 nM.
